In article PMC3641820:

Target: Recombinant Borrelia burgdorferi HtrA (HtrABb, BB0104) with intact N-terminal His-tag (Borrelia burgdorferi strain B31A3)
Experiment: SEC

Work on “Recombinant Borrelia burgdorferi HtrA (HtrABb, BB0104) with intact N-terminal His-tag (enzyme)” yielded a stoichiometry N of 3.
